Source: US20250011363A1, “OPTIMIZED SHORTENED PEPTIDE THAT BINDS TO ACETYLCHOLINE RECEPTOR, AND USE THEREOF” (SKINMED CO., LTD., priority 2021, published 2025)

Target: acetylcholine receptor
Assay: SPR, AchR immobilized on CM5 chip, peptide at 10 uM

In order of rising Binding affinity (RU):
1. RMTVR [5mer-1003]  11 RU
2. KDSNR [5mer-1008]  11 RU
3. RHCER [5mer-735]  11 RU
4. KKNER [5mer-699]  12 RU
5. KEDNK [5mer-1002]  12 RU
6. KCKVK [5mer-1020]  12 RU
7. RYCKK [5mer-1023]  13 RU
8. RKEER [5mer-1031]  13 RU
9. RINVR [5mer-737]  13 RU
10. KTTAK [5mer-724]  14 RU
11. RFAKK [5mer-1034]  14 RU
12. RHAKK [5mer-705]  15 RU
13. KCDNK [5mer-1010]  16 RU
14. KYPKK [5mer-713]  16 RU
15. KATER [5mer-734]  16 RU
16. RAWER [5mer-700]  17 RU
17. KEPER [5mer-1006]  17 RU
18. RADFK [5mer-712]  18 RU
19. RISDK [5mer-1030]  18 RU
20. KADHK [5mer-731]  18 RU
21. KTKFK [5mer-999]  19 RU
22. KCCVK [5mer-1013]  19 RU
23. RNKKK [5mer-718]  19 RU
24. RNADR [5mer-725]  19 RU
25. KPHIK [5mer-728]  19 RU
26. KEHVR [5mer-1035]  19 RU
27. KHCWR [5mer-1000]  20 RU
28. KPKAR [5mer-708]  20 RU
29. KCKFR [5mer-717]  20 RU
30. KFWAK [5mer-1018]  20 RU
31. RNAVR [5mer-1026]  20 RU
32. KEKAR [5mer-710]  21 RU
33. KISER [5mer-719]  21 RU
34. RNHNK [5mer-701]  22 RU
35. KPNWR [5mer-703]  22 RU
36. RHKVR [5mer-1012]  22 RU
37. KCNGR [5mer-715]  22 RU
38. RYSKK [5mer-721]  22 RU
39. RASPR [5mer-723]  22 RU
40. KIMWR [5mer-732]  22 RU
41. RKNKR [5mer-1014]  23 RU
42. KEPDK [5mer-729]  23 RU
43. RHHMR [5mer-1032]  23 RU
44. KTCDR [5mer-733]  23 RU
45. KTHMK [5mer-1036]  23 RU
46. RCTWK [5mer-1017]  24 RU
47. KKHHR [5mer-736]  24 RU
48. KTDMK [5mer-1011]  25 RU
49. KINVR [5mer-716]  25 RU
50. RHKWK [5mer-1025]  25 RU
51. KADIK [5mer-1029]  25 RU
52. KITHK [5mer-1021]  26 RU
53. KIDNK [5mer-1024]  26 RU
54. RKMAK [5mer-706]  27 RU
55. RHTIR [5mer-709]  27 RU
56. KFCNK [5mer-730]  27 RU
57. RFMGK [5mer-704]  28 RU
58. KYTMR [5mer-1016]  28 RU
59. RFKFK [5mer-1019]  28 RU
60. KNTNR [5mer-1027]  28 RU
61. RMAMR [5mer-1028]  28 RU
62. REWDK [5mer-1033]  28 RU
63. KMCAK [5mer-1009]  29 RU
64. KIADK [5mer-1022]  29 RU
65. KISHK [5mer-702]  30 RU
66. RDADR [5mer-1004]  30 RU
67. RTHGR [5mer-1005]  30 RU
68. RDMMR [5mer-1007]  30 RU
69. RCWMK [5mer-1015]  30 RU
70. KMDAR [5mer-727]  31 RU
71. KIEAK [5mer-707]  32 RU
72. KECIK [5mer-711]  32 RU
73. RPCAK [5mer-714]  32 RU
74. KDPKR [5mer-720]  32 RU
75. KPCGK [5mer-1001]  33 RU
76. KNHKK [5mer-722]  33 RU
77. KATMK [5mer-726]  33 RU
78. RSILRK [6mer-2-401]  153 RU
79. RQIRRR [6mer-2-400]  154 RU
